Results as given in patent US20230365705A1 (DYNAMICURE BIOTECHNOLOGY, published 2023).

Experiments:
[1] = target: T1, Human CD93 on cells (human CD93 expressing CHO cells; HUVEC, U937 and KG1a cells) (human, UniProt Q9NPY3 22-652); assay: flow cytometry titration, KG1a cells
T1 construct: whole, on cells; also called hCD93 expressing CHO cells; hCD93 CHO cells
T1 sequence (looked up): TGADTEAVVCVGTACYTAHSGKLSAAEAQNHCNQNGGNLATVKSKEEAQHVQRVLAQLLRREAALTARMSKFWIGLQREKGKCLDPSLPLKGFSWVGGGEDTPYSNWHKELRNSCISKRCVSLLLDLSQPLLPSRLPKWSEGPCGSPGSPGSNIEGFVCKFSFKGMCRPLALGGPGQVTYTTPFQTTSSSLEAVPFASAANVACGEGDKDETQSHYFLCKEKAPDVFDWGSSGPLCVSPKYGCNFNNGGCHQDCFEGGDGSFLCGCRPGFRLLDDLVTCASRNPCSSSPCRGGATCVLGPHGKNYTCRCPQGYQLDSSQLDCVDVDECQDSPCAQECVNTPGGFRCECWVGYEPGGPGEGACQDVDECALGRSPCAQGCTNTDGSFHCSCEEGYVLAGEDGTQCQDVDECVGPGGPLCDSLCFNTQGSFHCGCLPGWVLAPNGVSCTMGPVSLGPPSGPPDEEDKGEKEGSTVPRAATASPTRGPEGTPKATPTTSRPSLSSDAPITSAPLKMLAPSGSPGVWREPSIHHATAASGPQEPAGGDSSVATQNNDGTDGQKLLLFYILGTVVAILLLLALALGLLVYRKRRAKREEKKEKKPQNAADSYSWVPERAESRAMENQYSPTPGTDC
Method: (§1) KG1a cells were detached by incubation with TrypLE reagents (Thermo Fisher), which preserves the integrity of CD93 on the cell surface. Then the cells were incubated with serial diluted anti-CD93 antibodies for 30 minutes at 4° C. After washing by FACS buffer, the cells were incubated with Alexa Fluor 647 conjugated anti-human IgG (Jackson ImmunoResearch) for 30 minutes in 4° C. After washing by FACS buffer twice, the samples were acquired in NovoCyte Flow Cytometer and analyzed by NovoExpress software.

[2] = target: T2, Human CD93 recombinant protein (Sino Biological Inc, Catalog #12589-H08H) (human, UniProt Q9NPY3 22-580); assay: summary table, column Octet (hCD93); 2 weeks at 40 C
T2 construct: Biotinylated (EZ-LINK NHS-PEG4 biotin) in the BLI assays; also called hCD93; His-tagged human CD93
T2 sequence (looked up): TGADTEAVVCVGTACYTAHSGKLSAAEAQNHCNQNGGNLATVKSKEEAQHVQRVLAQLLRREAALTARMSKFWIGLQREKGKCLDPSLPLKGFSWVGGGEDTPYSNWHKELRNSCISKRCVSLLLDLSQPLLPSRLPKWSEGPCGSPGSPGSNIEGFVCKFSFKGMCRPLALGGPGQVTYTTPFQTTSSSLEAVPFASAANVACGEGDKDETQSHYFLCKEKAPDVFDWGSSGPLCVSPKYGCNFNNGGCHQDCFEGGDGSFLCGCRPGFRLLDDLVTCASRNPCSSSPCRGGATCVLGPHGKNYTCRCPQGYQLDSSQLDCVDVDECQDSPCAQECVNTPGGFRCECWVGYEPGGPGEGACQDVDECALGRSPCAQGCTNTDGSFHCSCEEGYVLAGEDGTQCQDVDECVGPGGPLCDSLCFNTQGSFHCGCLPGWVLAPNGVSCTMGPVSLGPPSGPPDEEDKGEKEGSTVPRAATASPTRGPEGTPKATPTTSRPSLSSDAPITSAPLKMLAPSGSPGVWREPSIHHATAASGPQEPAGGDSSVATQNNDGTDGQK
Method: (§2) The binding affinity of anti-CD93 antibodies was determined with bio-layer interferometry using Octet QKe (Fortebio). […] Human CD93 recombinant protein (Sino Biological Inc, Catalog #12589-H08H) was biotinylated using EZ-LINK NHS-PEG4 biotin (Thermo Fisher Scientific). Streptavidin biosensors (Fortebio) were used to load biotinylated CD93 protein (300 seconds in 5 μg/ml). Baseline was stabilized for 60 seconds in 1×kinetics buffer (Fortebio) before anti-CD93 antibodies, at a serial dilution, were allowed to associate for 300 seconds with captured protein. Then the sensors were dissociated in 1× kinetics buffer for 600 seconds. […] (FIG. 41).
as §2, with “1× kinetics” for “1×kinetics”, “42).” for “41).”

[3] = target: T1, Human CD93 on cells (human CD93 …); assay: summary table, column FACS (KG1a cells)
Method: as §1, §1

[4] = target: T1, Human CD93 on cells (human CD93 …); assay: summary table, column FACS (CHO-hCD93 cells); 2 weeks at 40 C
[5] = target: T2, Human CD93 recombinant protein (Sino …); assay: summary table, column ELISA (hCD93); 4 weeks at 40 C
Method: (§3) His-tagged human CD93 was coated onto a 96 well plate at 1 μg/mL in 1×PBS overnight at 4° C. The plate was washed with ELISA wash buffer (Boston BioProduct, Inc.) and the wells were blocked with ELISA blocking buffer for 1 hour at 37° C. […] The plate was washed with ELISA wash Buffer. HRP-conjugated anti-human Fc antibody was incubated for 1 hour at 37° C. The plate was washed with ELISA wash Buffer. HRP substrate was added for indirect detection of the antibodies binding to CD93.
as §3

[6] = target: T1, Human CD93 on cells (human CD93 …); assay: flow cytometry titration, KG1a cells; antibody stored 4 weeks at 40 C
Method: as §1

[7] = target: T2, Human CD93 recombinant protein (Sino …); assay: ELISA, His-tagged human CD93 coated, OD450
Method: as §3

B1: h7F3 (humanized 7F3, VH3+VL3) (antibody, human IgG1, V domains shown)
VH: QVQLVQSGAEVKKPGASVKVSCKASGYTFTDYEMHWVRQAPGQGLEWMGGIDPETGDTAYNQNFKGRVTMTTDTSTSTAYMELRSLTSDDTAVYYCTNYGNLYYYAMDYWGQGTSVTVSS
VL: EIVLTQSPSSLSASVGDRVTITCRASSSVSSSYLHWYQQKPGKAPKLLIYSTSNLAFGVPSRFSGSGSGTSYTFTISSLQPEDIATYYCQQYSGYPLTFGSGTKLEIK
notes: also called humanized 7F3-hIgG1
EC50 [1]: 0.024 nM
Kd [2]: 0.495 nM
EC50 [3]: 0.024 nM
EC50 [4]: 0.194 nM
EC50 [5]: 0.0407 nM
EC50 [6]: 0.019 nM
EC50 [7]: 0.0427 nM

B2: h16E4 (humanized 16E4, VH4+VL6) (antibody, V domains shown)
VH: QVQLVQSGAEVKKPGASVKVSCKASGYTFTSYWMHWVRQAPGQGLEWMGEIDPSASYTYYNQKFKGRVTMTRDKSSSTVYMELSSLTSEDSAVYYCARSVYYGNKYFDVWGAGTTVTVSS
VL: DIQMTQSPSTLSASVGDRVTITCKASQSVDYAGDSYMNWYQQKPGKAPKLLIYAASNLESGVPSRFSGSGSGTEFTLTISSLQPDDFATYYCQQTNEDPRTFGGGTKLEIK
notes: Detected with anti-human IgG, so a human Fc
EC50 [1]: 0.131 nM
Kd [2]: 0.0204 nM
EC50 [3]: 0.131 nM
EC50 [4]: 0.274 nM
EC50 [5]: 0.051 nM
EC50 [6]: 0.115 nM
EC50 [7]: 0.033 nM
